Measurements reported in patent EP2586797A2.
Residue numbers refer to the chain shown, from its start.

B1: Composite human antibody variant VH5/VK3 (antibody, human IgG1, V domains shown)
VH: QVQLVQSGAEVKKPGASVKVSCTASGFNIKDTYIHWVRQARGQRLEWIGRFDPVNVNTRYDSRFRGRVTITSDASTSTAYMELSSLRSEDTAVYYCSRSYYNGRRRFTYWGQGTLVTVSS
VL: DIVMTQSPSSLTASVGDRVTITCKASQSLLSSGNQKNYLTWYQQKPGQPPKLLIYWASIRESGVPDRFSGSGSGTDFTLTISSLQAEDVAVYYCQNDYNYPFTFGQGTKLEIK
B2: Composite human antibody variant VH1/VK1 (antibody, V domains shown)
VH: B1 VH with Q1E, V11L, R41P, V68A, S77N
VL: B1 VL with S9D, A13V, V15L, D17E, V19A, T22N, S69T, D76F
B3: Composite human antibody variant VH1/VK3 (antibody, human IgG1, V domains shown)
VH: B1 VH with Q1E, V11L, R41P, V68A, S77N
VL: B1 VL
B4: Composite human antibody variant VH2/VK2 (antibody, human IgG1, V domains shown)
VH: B1 VH with Q1E, V68A, S77N
VL: B1 VL with S69T, D76F
B5: Composite human antibody variant VH2/VK3 (antibody, human IgG1, V domains shown)
VH: B1 VH with Q1E, V68A, S77N
VL: B1 VL
B6: Composite human antibody variant VH3/VK3 (antibody, human IgG1, V domains shown)
VH: B1 VH with V68A, S77N
VL: B1 VL
B7: Composite human antibody variant VH4/VK3 (antibody, human IgG1, V domains shown)
VH: B1 VH with S77N
VL: B1 VL

What follows are binders tested against Abeta42 beta amyloid peptide (UniProt P05067) (assay: competition ELISA, NS0 supernatant titrated against 0.25 ug/ml biotinylated mouse 6E10 (mouse MDT-2007) on coated beta amyloid; IC50 normalised to mouse 6E10 (=1; <1 improved)).
Abeta42 beta amyloid peptide, sequence (P05067 672-713 limits assumed): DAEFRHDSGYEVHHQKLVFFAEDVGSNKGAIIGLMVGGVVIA
B1 was tested, and the fold difference in IC50 relative to mouse 6E10 was 1.02 fold.
With B2 the fold difference in IC50 relative to mouse 6E10 was 0.78 fold.
Binder B3 has a fold difference in IC50 relative to mouse 6E10 of 1.93 fold.
Work on B4 yielded a fold difference in IC50 relative to mouse 6E10 of 1.1 fold.
For B5, the fold difference in IC50 relative to mouse 6E10 was 0.96 fold.
With B6 the fold difference in IC50 relative to mouse 6E10 was 1.57 fold.
Work on B7 yielded a fold difference in IC50 relative to mouse 6E10 of 1.36 fold.
